Reference: article PMC4992835, “Antibodies elicited by the first non-viral prophylactic cancer vaccine show tumor-specificity and immunotherapeutic potential” (Scientific Reports, 2016)
Numbering of substitutions follows the chain as printed. Values belong to the binder of their own block, whether it stands above or below them.

Tests used:
[1] = target: T1, MUC1 100mer vaccine peptide (Homo sapiens, UniProt P15941)
Target sequence in this assay (P15941 136-235): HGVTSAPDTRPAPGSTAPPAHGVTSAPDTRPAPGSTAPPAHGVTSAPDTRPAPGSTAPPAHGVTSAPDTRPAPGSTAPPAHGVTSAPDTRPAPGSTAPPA

MUC1 VNTR 25mer peptide = target: T2, MUC1 VNTR 25mer peptide (Homo sapiens); experiment: SPR; Biacore T200; whole IgG captured on a CM5 chip coated with anti-human IgG capture antibody; serially diluted 25mer peptide as analyte; 1:1 model; settings: both partners purified
T2 construct: MUC1 VNTR, human; one repeat plus 5 amino acids from the next repeat; also called 25mer MUC1 peptide

[2] = target: T1, MUC1 100mer vaccine peptide; experiment: SPR; Biacore T200; Fab captured at low density (RU < 50) on a CM5 chip coated with anti-human Fab capture kit; serially diluted 100mer peptide as analyte; kinetic analysis, 1:1 model; settings: both partners purified
[3] = target: T1, MUC1 100mer vaccine peptide; experiment: SPR; Biacore T200; Fab captured at low density (RU < 50) on a CM5 chip coated with anti-human Fab capture kit; serially diluted 100mer peptide as analyte; 'Steady State' in Table 1 in place of rate constants; settings: both partners purified

T2 sequence (peptide, as listed by the source): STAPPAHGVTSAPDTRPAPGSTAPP

binding result [1]: binds
B1: H16K6 (antibody, V domains shown)
VH: QVQLVESGGGLVKPGGSLRLSCAASGFTFSDYYMSWIRQAPGKGLEWVSYISSSGTTKYYADSVKGRFTISRDNAKNSLYLQMNSLRAEDTAVYYCVRENLGYCSGGSCFYYYYMDVWGKGTTVTVSS
VL: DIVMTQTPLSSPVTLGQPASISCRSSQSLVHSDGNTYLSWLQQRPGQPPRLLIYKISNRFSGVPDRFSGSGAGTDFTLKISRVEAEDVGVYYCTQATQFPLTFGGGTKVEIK

Kd (MUC1 VNTR 25mer peptide): 27.2 nM
koff (MUC1 VNTR 25mer peptide): 0.00123 s⁻¹
kon (MUC1 VNTR 25mer peptide): 45300 M⁻¹ s⁻¹
B2: H14K6 whole IgG (antibody, V domains shown)
VH: B1 VH with T56S, K58I, V97A, N100R, L101I, F110Y
VL: not shown

Kd [2]: 0.555 nM
koff [2]: 0.000453 s⁻¹
kon [2]: 817000 M⁻¹ s⁻¹
B3: H19K15 Fab (Fab, V domains shown)
VH: B1 VH with T28I, N100D, L101I
VL: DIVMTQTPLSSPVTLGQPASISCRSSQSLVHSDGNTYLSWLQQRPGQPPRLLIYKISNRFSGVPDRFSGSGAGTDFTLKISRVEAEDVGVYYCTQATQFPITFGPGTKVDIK

Kd [2]: 0.13 nM
koff [2]: 0.000346 s⁻¹
kon [2]: 2.67e+06 M⁻¹ s⁻¹
B4: H14K6 Fab (Fab, V domains shown)
VH: B1 VH with T56S, K58I, V97A, N100R, L101I, F110Y
VL: not shown

kon (MUC1 VNTR 25mer peptide): 8600 M⁻¹ s⁻¹
B5: H19K15 whole IgG (antibody, V domains shown)
VH: B1 VH with T28I, N100D, L101I
VL: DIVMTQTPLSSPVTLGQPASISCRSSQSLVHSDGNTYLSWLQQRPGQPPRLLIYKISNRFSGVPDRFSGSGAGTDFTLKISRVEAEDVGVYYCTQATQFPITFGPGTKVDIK

Kd [3]: 5310 nM
B6: H4K10 Fab (Fab, V domains shown)
VH: QLQLQESGPGLVKPSETLSLTCTVSGGSISSSRYYWGWIRQPPGKGLEWIGSIYYSGSTYYNPSLKSRVTISVDTSNNQFSLKLTSVTAADTAVYYCARLPESGGYSGWFDPWGQGTLVTVSS
VL: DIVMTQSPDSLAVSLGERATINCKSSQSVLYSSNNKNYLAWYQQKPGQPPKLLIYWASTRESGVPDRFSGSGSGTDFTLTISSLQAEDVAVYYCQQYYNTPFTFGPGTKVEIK

Kd [3]: 15700 nM
B7: H4K11 Fab (Fab, V domains shown)
VH: B6 VH
VL: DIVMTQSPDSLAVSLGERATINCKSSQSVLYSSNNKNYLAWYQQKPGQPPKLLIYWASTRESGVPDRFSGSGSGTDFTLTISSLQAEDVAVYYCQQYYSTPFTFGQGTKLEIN
